The record followed here is paper PMC11294453, “Cryo-EM structure of a conjugative type IV secretion system suggests a molecular switch regulating pilus biogenesis” (The EMBO Journal, 2024).

B1: TrwJ/VirB5 (natural protein, UniProt O50331 23-226, looked up)
chain: QGIPVFDGTRALDFVQQFARMKEQLDTAKDQLAEAQRMYEAVTGGRGLGDLMRNAQLREYLPDDLRTVYDSANGGGYSGISGSINDILRDERLNGSVADMRRSIEERSRTARTTDKAVGCGPTKGHSNASRRLKDEISRTQDQKAIEELQARIAGEQAAIQNETTKLQMIAQLRQAEQALISEQRRERNMPILSSGNQGMPTIQ
notes: TrwJ, the VirB5 homologue of the type IV secretion system encoded by the conjugative plasmid R388; residues Gln23-Ala33 newly built; source: R388 T4SS complexes expressed and purified from membranes as described previously (Mace et al, 2022)
B2: TrwF/VirB9 (natural protein)
chain: LDVPSSSRYDHRIRYVTYNPADVVQVDTVLGVATHIMLEEGEQYLTHAFGIPKPMPLPGRAGIFLSSRTAELANTNLIVVTDRRSYKFRLQMRNDRNGAMYELAFRYPDTQARQTREANARAAVEAAFEQRVGAYYNLKYMMSGDKDIAPVNAWDDGRFTYFKFSANADLPSIYFVDAEGNESLVPRTTVGSSNNIIAVHKVNPKWMIRLGNRALAIFNEAYDPNGVPNDTGTASPAVRRVNKGGN
notes: TrwF, the VirB9 homologue of the type IV secretion system encoded by the conjugative plasmid R388; NTD in the I-layer, CTD in the O-layer, linker helix residues 128 to 150; also called TrwF/VirB9NTD; VirB9CTD; source: R388 T4SS complexes expressed and purified from membranes as described previously (Mace et al, 2022)
B3: TrwI/VirB6 (natural protein)
chain: MAFELFTPLFNKIDQTTATYVTDISSRAIAAITPVVSVGLTLGFITYGWLIIRGAVEMPVAEFLNRCLRIGIIVSIALAGGLYQGEIANAITTVPDELASALLGNPTEGASAAALVDQSAQQGFDRASEAFEEAGFFSSDGLLYGLFGIIIPAGYGPAGAIGGAFLLLAKIALALLAGLGPLFILALIWQPTHRFFDQWAQQVLNYGLLIVLFAAVFGLLMQIFGSYMADLRFDGAQNVAYAIGGSVILSIVSIVLLMQLPSIASGLAGGIGLGYMWELRSMRSGAGAAMRGGRAMARGARAAPGAARGAAVGAANMAKTVATGGAGVARAAAGYFRGRKAG
notes: TrwI, the VirB6 homologue of the type IV secretion system encoded by the conjugative plasmid R388; TM region (α1 and α2) is residues 30-82; also called TrwI/VirB6TM; VirB6_(α1α2TM); source: R388 T4SS complexes expressed and purified from membranes as described previously (Mace et al, 2022)
B4: TrwE/VirB10 (natural protein)
chain: MFGRKKGDVIDAGAELERAEQERIEGEYGASELASERRPHTPGARTLLMVLLCVIAVVLVTLSYKAYKVRGVVEDDDAQPQQVVRQVIPGYTPRPIRPEPENVPEPPQPTTSVPAIQPAPVTQPVRPQPTGPREKTPYELARERMLRSGLTAGSGGGEDLPRPQGGDVPAGGLMGGGGGGGELAEKLQPMRLSGSSAGRLGNRDMLITQGTQLDCVLETRLVTTQPGMTTCHLTRDVYSTSGRVVLLDRGSKVVGFYQGGLRQGQARIFVQWSRIETPSGVVINLDSPGTGPLGEAGLGGWIDRHFWERFGGAIMISLIGDLGDWASRQGSRQGNNSIQFSNTANGVESAAAEALRNSINIPPTLYKNQGERVNILVARDLDFSDVYSLESIPTK
notes: TrwE, the VirB10 homologue of the type IV secretion system encoded by the conjugative plasmid R388; residues 21-69, 83-101, 135-153 and 177-395 are described in the structures; the first 20 residues are invisible; also called TrwE/VirB10NTD; VirB10NT; source: R388 T4SS complexes expressed and purified from membranes as described previously (Mace et al, 2022)
B5: TrwG/VirB8 (natural protein)
chain: MSKKQPKPVKAEQLKSYYEESRGLERDLIGEFVKSRKTAWRVATASGLFGLLGMVCGIVGFSQPAPAPLVLRVDNATGAVDVVTTLREHESSYGEVVDTYWLNQYVLNREAYDYNTIQMNYDTTALLSAPAVQQDYYKLFDGSNARDRVLGNKARITVRVRSIQPNGRGQATVRFTTQQHNSNGTVERPQHQIATIGYTYIGAPMRSSDRLLNPLGFQVTSYRADPEILNN
notes: TrwG, the VirB8 homologue of the type IV secretion system encoded by the conjugative plasmid R388; also called TrwG/VirB8_(peri); TrwG/VirB8_(tail); source: R388 T4SS complexes expressed and purified from membranes as described previously (Mace et al, 2022)
B6: TrwH/VirB7 (natural protein, UniProt O50334 17-47, looked up)
chain: CASAPKPKQPSDFNREPVNKTVPVEIQRGAL
notes: TrwH, the VirB7 homologue of the type IV secretion system encoded by the conjugative plasmid R388; source: R388 T4SS complexes expressed and purified from membranes as described previously (Mace et al, 2022)
B7: TrwK/VirB4 (enzyme)
chain: MGAIESRKLLASETPVGQFIPYSHHVTDTIISTKNAEYLSVWKIDGRSHQSASEADVFQWIRELNNTLRGISSANLSLWTHIVRRRVYEYPDAEFDNVFCRQLDEKYRESFTGYNLMVNDLYLTVVYRPVSDKVLSFFAKRERETPDQKKHRQESCIKALEDINRTLGQSFKRYGAELLSVYEKGGHAFSAPLEFLARLVNGEHIPMPICRDRFSDYMAVNRPMFSKWGEVGELRSLTGLRRFGMLEIREYDDATEPGQLNVLLESDYEFVLTHSFSVLSRPAAKEYLQRHQKNLIDARDVATDQIEEIDEALNQLISGHFVMGEHHCTLTVYGETVQQVRDNLAHASAAMLDVAVLPKPVDLALEAGYWAQLPANWQWRPRPAPITSLNFLSFSPFHNFMSGKPTGNPWGPAVTILKTVSGTPLYFNFHASKEEEDATDKRLLGNTMLIGQSSSGKTVLLGFLLAQAQKFKPTIVAFDKDRGMEISIRAMGGRYLPLKTGEPSGFNPFQLPPTHANLIFLKQFVKKLAAAGGEVTHRDEEEIDQAITAMMSDSIDKSLRRLSLLLQFLPNPRSDDMDARPTVHARLVKWCEGGDYGWLFDNPTDALDLSTHQIYGFDITEFLDNPEARTPVMMYLLYRTESMIDGRRFMYVFDEFWKPLQDEYFEDLAKNKQKTIRKQNGIFVFATQEPSDALESNIAKTLIQQCATYIFLANPKADYEDYTQGFKLTDSEFELVRGLGEFSRRFLIKQGDQSALAEMNLGKFRTIVDGETVERDFDDELLVLSGTPDNAEIAESIIAEVGDDPAVWLPIFLDRVKAERSDV
notes: TrwK, the VirB4 ATPase of the type IV secretion system encoded by the conjugative plasmid R388; also called TrwK/VirB4_(central); TrwK/VirB4_(outside); source: R388 T4SS complexes expressed and purified from membranes as described previously (Mace et al, 2022)
B8: TrwM/VirB3 (natural protein)
chain: MKPPQQQHEAFPLFKGATRLPTILGEPMIPLMAMVMGVAVIALTVSIWWWALVPPLWFIMAQITKNDDKAFRIWWLWIDTKFRNRNKGFWGASSYSPANYRKRR
notes: TrwM, the VirB3 homologue of the type IV secretion system encoded by the conjugative plasmid R388; source: R388 T4SS complexes expressed and purified from membranes as described previously (Mace et al, 2022)

In data set [1] the target is B3. The experiment in a line: cryo-EM structure; R388 T4SS complex purified from membranes; Stalk map with C5 symmetry applied, 2.97 Å. The conditions noted are these: both partners purified.
In data set [2] the target is B4. In words: cryo-EM structure; R388 T4SS complex purified from membranes; OMCC maps: O-layer with C14 symmetry (2.46 Å), I-layer with C16 symmetry (2.69 Å), OMCC conformations A, B and C without symmetry. The conditions noted are these: both partners purified.
The target in data set [3] is B4. In words: cryo-EM structure; R388 T4SS complex purified from membranes; extended IMC protomer map without symmetry, 3.83 Å, with the Stalk-Arches-IMC map at 4.33 Å. The conditions noted are these: both partners purified.
For data set [4], the target named is B7. Described as above. The settings on record: both partners purified.
Data set [5] deals with the molecule itself. In words: cryo-EM structure; R388 T4SS complex purified from membranes; OMCC maps: O-layer with C14 symmetry (2.46 Å), I-layer with C16 symmetry (2.69 Å), OMCC conformations A, B and C without symmetry.
Data set [6] concerns the molecule itself. In words: cryo-EM structure; R388 T4SS complex purified from membranes; Arches map without symmetry, 6.22 Å; secondary structures only, no side chains.
The target in data set [7] is B4. The description is as above. The settings on record: both partners purified.
Data set [8] deals with B2. In words: cryo-EM structure; R388 T4SS complex purified from membranes; OMCC maps: O-layer with C14 symmetry (2.46 Å), I-layer with C16 symmetry (2.69 Å), OMCC conformations A, B and C without symmetry. The settings on record: both partners purified.
Data set [9] deals with the molecule itself. The experiment in a line: cryo-EM structure; R388 T4SS complex purified from membranes; extended IMC protomer map without symmetry, 3.83 Å, with the Stalk-Arches-IMC map at 4.33 Å.

Regarding B1, the binding result in data set [1] is given as “binds”.
For the molecule B2, the binding result in data set [2] is given as “binds”.
For the molecule B3, the binding result in data set [3] is recorded as “binds”.
With B4, the binding result in data set [4] and in data set [5] was “binds” in each case.
One may read the stoichiometry N as the number of molecules, sites or subunits per partner or assembly. As for B5, the binding result in data set [4] and in data set [7] was “binds” throughout. Further, the “stoichiometry N” value in data set [6] turned out to be 24 subunits.
On to B6, for which the binding result in [2] and in data set [8] was “binds” each time.
Turning to B7, the binding result in data set [9] was “binds”.
Consider B8, for which the binding result in data set [3] and in [4] was “binds” in each case.
